According to the supplement of paper PMC9170038:

Key:
MS2 coat protein [1] = test: apparent KD of MS2 coat protein, switch ON state; designed switch direction (-1 OFF switch, 1 ON switch): -1; higher = weaker reporter binding; conditions: FMN input: 0 or 200 uM; Eterna round: R93 (includes R88 designs)
Summary of the method: (§1)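 Values are apparent KD, taken as the median for each design of fits to normalised binding curves from individual clusters. The designed RNA switches were transcribed on-chip from Illumina sequencing clusters and exposed to SNAP-549-labelled MS2 coat protein at twofold increasing amounts from 0.7 or 1.5 nM to 3 µM. Titration used 100 mM Tris-HCl pH 7.5, 80 mM KCl and 4 mM MgCl2, without or with constant ligand.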

MS2 coat protein [2] = test: apparent KD of MS2 coat protein, switch OFF state (with FMN for OFF switches, without FMN for ON switches); designed switch direction (-1 OFF switch, 1 ON switch): -1; higher = weaker reporter binding; conditions: FMN input: 0 or 200 uM; Eterna round: R93 (includes R88 designs)
Summary of the method: as §1

MS2 coat protein [3] = test: apparent KD of MS2 coat protein; designed switch direction (-1 OFF switch, 1 ON switch): 1; higher = weaker reporter binding
Summary of the method: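 Designed RNA switches with common flanks were made on Illumina chips by stalled E. coli RNA polymerase. Titration with SNAP-549-labelled MS2 coat protein doubled from 0.7 or 1.5 nM up to 3 µM. Apparent KD is each design's median over clusters after curve-fitting normalised fluorescence.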

[4] = Eterna round: R95, input ligand: FMN 200 uM
[5] = Eterna round: R95, input ligand: microRNA oligo, concentration not stated
[6] = Eterna round: R95, input ligand: none
[7] = input ligand: microRNA oligo, concentration not stated

Sequence	apparent KD of MS2 coat protein (MS2 coat protein [1])	apparent KD of MS2 coat protein (MS2 coat protein [2])	other results
AAUAAGUGAGGAUAUGUGAAUAGUAGAUAAGAUUCCCUAAAACAGAAGGCACAUGAGGAUCACCCAUGUAAAUA [JR_Exc004_Sub008]	26.2 nM	24.1 nM	–
AAAAAUCGAGGAUAUACAUGAGGAUCACCCAUGUCAAAAAAUGACUACACAAAAGAAAGUAGAAGGCGAUAAAA [Ex 3 May 17]	28.5 nM	31 nM	–
GGAUGUCUAGGAUAUACAUGAGGAUCACCCAUGUGAGAGAAAAAAGUGAGAAAGAAAAGUAGAAGGAGGUGUCG [salish99-ex3-88]	35.6 nM	37.5 nM	–
GGAUGCCAAGGAUAUACAUGAGGAUCACCCAUGUGAGAGAAAAAAGUGAGAAAGAAAAGUAGAAGGUGGUGUCG [salish99-ex3-92]	33.1 nM	65.2 nM	–
GAAGAACAUGAGGAUCACCCAUGUCAGGAUAUACAGAAGGGAAUAAUAUAACCUGAAAGUAGAAGGGACAAGAA [Ex 1 May 43]	33.9 nM	46.2 nM	–
GAAAACAGAGGAUAUACGGGAUUGACACGAAAAGUGCAAAAACAUGAGGAUCACCCAUGUAGAAGGCUGAAGAA [Meechl MS2... 60% 2]	31.5 nM	42.5 nM	–
AAAAAAGCAGGAUAUACGAACAUGUCAAAAGACGUGAAGGGACAUGAGGAUCACCCAUGUAGAAGGGUUAAAAA [JL Stem Breaker 5]	198 nM	53.6 nM	–
GAAGAACAUGAGGAUCACCCAUGUCAGGAUAUACAGAAGGGAAUAAUAAAAUCUGGAAGUAGAAGGGACAAGAA [Ex 1 May 46]	32.5 nM	49.3 nM	–
AAAUGCUGAGGAUAUACAUGAGGAUCACCCAUGUAAAAUAAAUAAUGAGUGUAAACGUGUAGAAGGCAGCAUAA [Exclusion 3.14c (FMN+ favored )]	41.1 nM	19.5 nM	–
AAAAUACAUGAGGAUCACCCAUGUGAGGAUAUGCUAUGGAAAUAAAAAAUAAAACAUAGCAGAAGGUACAAAAA [Mat - Exclusion 1 - Eli mod - D42]	20.9 nM	33.7 nM	–
AGAAAUGUAGGAUAUACAUGAGGAUCACCCAUGUGGGAGGAGGAGCAAACAAGACGAGGUAGAAGGACAACGAC [JR_Exc003-Sub903]	73.5 nM	79.2 nM	–
AGCAAGUUAGGAUAUGCGAAGUCAGGACACACACUGACGAAGCAGAAGGAACAUGAGGAUCACCCAUGUAAGCA [JR_Exclusion-4 65% 4]	22 nM	16.6 nM	–
GCAAAGUGAGGAUAUACGCGAACAAAAAUAAAAAAGAAAGCGUAGAAGGCACAUGAGGAUCACCCAUGUCCAGC [Mat - Exaclusion 4 - Eli mod - D77]	23.7 nM	30.3 nM	–
AAAAAACAUGAGGAUCACCCAUGUGAGGAUAUGCGAAAAAAAAAAUAAAAAAAAAAAAGUAGAAGGUACAAAAA [LROPPY Exclusion 1 - v08_deltaG=5.44]	27.9 nM	26.9 nM	–
AUAAACUGAGGAUAUACAUGAGGAUCACCCAUGUAAAAAAAAAAAUGAUCCUCAAAAAGUAGAAGGCAGAAUAA [JR_Exc003_Sub016]	23.4 nM	35.8 nM	–
CACGUACAUGAGGAUCACCCAUGUUAGGAUAUGCCGGGUAAGAGAAAACAAAAAAUCAGCAGAAGGAACGAAAC [Bilbo Confounded 18 - Jieux - Exclusion 1]	28.2 nM	28.5 nM	–
AAAAAGUGAGGAUAUGUCAAAGGUCACGAAAGUGACAAAGGACAGAAGGCACAUGAGGAUCACCCAUGUAAAAA [Fiskers Exclusion 4D1 65% - Early G segment 1]	37.4 nM	43.6 nM	–
AAAAAGGCAGGAUAUGCAUACCCACGGAAAAAAAGGUUGGGACAUGAGGAUCACCCAUGUAGAAGGGCCAAAAA [Dora Explored 13 - Jieux - Exclusion 2]	43.4 nM	22.4 nM	–
AGGAGACAUGAGGAUCACCCAUGUUAGGAUAUGAACGAAAUAAAAUAAAAAUAAAAGUUCAGAAGGAACGAAAA [Mat - Exclusion 1 - Eli mod - D10]	34.6 nM	56.6 nM	–
AGUGAGUGAGGAUAUGCUAGAAGAAUAAAAGAAAUAACGUAGCAGAAGGCACAUGAGGAUCACCCAUGUACACA [May 66]	25.6 nM	22.5 nM	–

Sequence	apparent KD of MS2 coat protein (MS2 coat protein [1])	apparent KD of MS2 coat protein (MS2 coat protein [2])	other results
AGAAAGUGAGGAUAUACAGAUAAAAAAACGAAAAAAAAUCUGUAGAAGGCACAUGAGGAUCACCCAUGUAAAGA [Mat - Exclusion 4 - Mayanna - D108]	37.9 nM	37.1 nM	–
AAGAACAGAGGAUAUACAUGAGGAUCACCCAUGUAAAAGAAAGAAAAGGGAAAGAAAAGUAGAAGGCUGAAGAA [Ankhkheperure Smenkhkare]	22.9 nM	42.8 nM	–
AACUGACAUGAGGAUCACCCAUGUCAGGAUAUGACAUCGAAAAAUAAAUAAAUCGUUGUCAGAAGGGACAUGAA [Design 76: Sub-opt S]	16.3 nM	14.9 nM	–
AAGAAGGUAGGAUAUACUAAAGAAAUAAAAAUAAAUAAAGAACAUGAGGAUCACCCAUGUAGAAGGGCCAAGAA [Merkheperre]	54.4 nM	50.8 nM	–
GGAUGUGAAGGAUAUACAUGAGGAUCACCCAUGUGAGAGAAAAAAGUGAGAAAGAAAAGUAGAAGGUCGUGUCG [salish99-ex3-86]	34.9 nM	36.9 nM	–
AAAAGGAAAGGAUAUGCAGACUGGGUCACCCAGAUGUAUGAACAUGAGGAUCACCCAUGUAGAAGGUUCAAAAG [Ribiquon]	36.6 nM	26.5 nM	–
UAUACGUGAGGAUAUGCGAAUACCACGUAAGACAUACAGACGCAGAAGGCACAUGAGGAUCACCCAUGUGAACC [JR_Exc004_Sub314]	19.2 nM	16.3 nM	–
ACAAGAUCAGGAUAUACAUGAGGAUCACCCAUGUAUAUCAAAAAGGGACUUACUUAAUGUAGAAGGGAUCAUGU [EX3 280: Random 16]	12.7 nM	13.9 nM	–
AGUUGGCGAGGAUAUACAUGAGGAUCACCCAUGUAAGAGAAAAAAAGGAGAAAAAAAAGUAGAAGGCGCUGACA [Mat - Exclusion 3 - Lego mod - D45]	35.4 nM	41.9 nM	–
AUCUUGUCAGGAUAUGACUACAUAAAAAAUAAAAAAUGUAGUCAGAAGGGACAUGAGGAUCACCCAUGUACCAA [Mat - Exclusion 4 - Eli mod - D96]	20.4 nM	22.3 nM	–
AACAGUACAGGAUAUACAUGAGGAUCACCCAUGUGGGUAAAAAGAUCGAGAGAUCCAUGUAGAAGGGUACUGGA [JL In the Red 05]	36.7 nM	37.9 nM	–
AAAUAGUUAGGAUAUACAUGAGGAUCACCCAUGUGCACUUAUGGAGAAUAGUGUAAUGGUAGAAGGGACUAAAA [EX2 Malc#23]	82.1 nM	94.6 nM	–
AACAGACAUGAGGAUCACCCAUGUAAGGAUAUCCCAAACGAUAAAACAAGAAUGACAAGGAGAAGGUGCAGCAA [JR_Exc001_Sub006]	62.8 nM	50.8 nM	–
AACAGUACAGGAUAUACAUGAGGAUCACCCAUGUAAAGGGAAAGUGGCGUACCACAAAGUAGAAGGGUACUGGA [Moding Maslow revisited (73) 5]	40.1 nM	175 nM	–
GUUAAACAUGAGGAUCACCCAUGUCAAUGUAGUCGAGGAUAUGGGCAGCUAUGAGGCGUACUAGAAGGCGAAGAGG [Mat - Same State 1 - Mod of JL - D11] (puzzle: Same State 1)	–	–	apparent KD of MS2 coat protein (MS2 coat protein [3]; [4]): 121 nM; apparent KD of MS2 coat protein (MS2 coat protein [3]; [5]): 236 nM; apparent KD of MS2 coat protein (MS2 coat protein [3]; [6]): 334 nM
UAAUUAAAGCAAGGAUAUCACGUCGUUUAGACGUGAGAAGGUGCUCCUUACAUGAGGAUCACCCAUGUAUAACAUGAAUAAUUA [SSNG1/10-B3] (Eterna round: R96, puzzle: Same State NG 1)	–	–	apparent KD of MS2 coat protein (MS2 coat protein [3]; input ligand: FMN 200 uM): 170 nM; apparent KD of MS2 coat protein (MS2 coat protein [3]; [7]): 517 nM; apparent KD of MS2 coat protein (MS2 coat protein [3]; input ligand: none): 656 nM
GUGGUCAGACAUGAGGAUCACCCAUGUGGAAUAAAUAAGGAAUAGGAUAUGGAAUAUAGGAUAUACCAGAAGGAUUGGUUGGUG (Eterna round: R96, puzzle: Same State NG 3)	–	–	apparent KD of MS2 coat protein (MS2 coat protein [3]; input ligand: FMN 200 uM): 96.9 nM; apparent KD of MS2 coat protein (MS2 coat protein [3]; [7]): 80.4 nM; apparent KD of MS2 coat protein (MS2 coat protein [3]; input ligand: none): 97 nM
AUAAAACAUGAGGAUCACCCAUGUCAACAUAGUCGAGGAUAUGGGCAAAUAAAAUAAGAACCAGAAGGCGAAUAAU [salish99_ss1_r3_040] (puzzle: Same State 1)	–	–	apparent KD of MS2 coat protein (MS2 coat protein [3]; [4]): 50.5 nM; apparent KD of MS2 coat protein (MS2 coat protein [3]; [5]): 714 nM; apparent KD of MS2 coat protein (MS2 coat protein [3]; [6]): 510 nM
GCUAGGAUAUGACGAGGAUCACCCGUUAGAAGGAGCUUCGGCUAGGAUAUGACGAGGAUCACCCGUUAGAAGGAGCUGUACUCU [pwkr ssNG3 DX 2xF5 +2xFMN.9] (Eterna round: R96, puzzle: Same State NG 3)	–	–	apparent KD of MS2 coat protein (MS2 coat protein [3]; input ligand: FMN 200 uM): 144 nM; apparent KD of MS2 coat protein (MS2 coat protein [3]; [7]): 76.7 nM; apparent KD of MS2 coat protein (MS2 coat protein [3]; input ligand: none): 92.3 nM
